Values of other authors in publication PMC4329993.
pKd: −log10 of the molar value.

Target: GLP-1 receptor (Homo sapiens) (UniProt P43220)
UniProt P43220, sequence (P43220 24-463): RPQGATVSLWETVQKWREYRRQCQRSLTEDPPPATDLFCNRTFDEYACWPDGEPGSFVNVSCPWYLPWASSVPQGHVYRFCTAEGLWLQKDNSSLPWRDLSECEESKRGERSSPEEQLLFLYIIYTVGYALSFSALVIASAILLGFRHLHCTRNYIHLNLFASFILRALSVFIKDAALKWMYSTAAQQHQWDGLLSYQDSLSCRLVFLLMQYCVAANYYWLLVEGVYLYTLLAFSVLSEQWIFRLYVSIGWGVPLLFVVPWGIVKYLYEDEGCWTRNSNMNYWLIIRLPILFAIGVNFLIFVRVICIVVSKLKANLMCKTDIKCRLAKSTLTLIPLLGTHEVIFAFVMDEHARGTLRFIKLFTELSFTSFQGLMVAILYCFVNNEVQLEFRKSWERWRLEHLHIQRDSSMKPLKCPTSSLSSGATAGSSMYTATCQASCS

GLP-1, sequence (P01275 98-127): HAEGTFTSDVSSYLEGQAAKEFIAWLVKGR

pKd: 9.52
Substance: GLP-1 (from UniProt P01275)
